Article PMC5414288, “^99mTc-radiolabeled GE11-modified peptide for ovarian tumor targeting” (DARU Journal of Pharmaceutical Sciences, 2017)

Legend:
[1] = Biodistribution study in normal mice; assay type: in vivo; settings: normal female NMRI mice, 1 μg i.v., mean ± SD, n = 4
Experimental: Normal female NMRI mice (20–30 g, Mazandaran animal center institute, Sari, Iran) were used in this study and randomly divided into 3 groups of 4. 100 μL of the solution containing 1 μg of the radiolabeled peptide was intravenously injected to the tail vein of each mouse. Mice were euthanized through intraperitoneal injection of ketamine and xylazine at 1, 4 and 24 h after injection. Blood was collected from the heart after deep anesthesia by a syringe which had been washed with heparin. Thereafter, organ samples including; lungs, stomach, liver, kidneys, bone, muscle, salivary glands, heart, spleen and intestines were removed, weighted and the radioactivity of each sample was measured. The tissue uptake of all organs except intestine was calculated as percent of injected dose per gram tissue (% ID/g) and for the intestine was calculated as % ID of the whole sample.

Stability in human serum = assay type: in vitro ADME; settings: fresh human serum (100 μl to 20 μl reaction mixture), 37 °C, 4 h, acetonitrile/ethanol precipitation, RP-HPLC
Experimental: Serum stability of the peptide was also determined following addition of 100 μl of fresh human serum to 20 μl of the reaction mixture and incubation for 1 and 4 h at 37 °C. Plasma samples were then treated with 500 μl of a mixture of acetonitrile and ethanol (1:1), centrifuged (14,000 rpm, 6 min), filtered (0.22 μm) and degradation of the radiolabeled peptide was assessed in supernatant by RP-HPLC [24].

[2] = system: SKOV3 human ovarian cancer xenografts; experiment: Biodistribution study in nude mice bearing SKOV3 xenografts; assay type: in vivo; settings: female nude mice bearing SKOV3 xenograft, 1 μg i.v.; for Blood uptake / Bone uptake / Heart uptake / Intestine uptake / Kidney uptake / Liver uptake / Lung uptake / Muscle uptake / Spleen uptake / Stomach uptake / Tumor uptake / s.g & Th. (salivary gland and thyroid) uptake: mean ± SD
Experimental: The in vivo tumor-targeting of the radiolabeled peptide was studied in female nude mice bearing SKOV3 cancer xenografts. For tumor induction, 10 × 10^6 SKOV3 cells were subcutaneously injected into the right hind leg of nude mice and tumor was allowed to grow for about 4 weeks. In the day of experiment, the average tumor size was 0.63 ± 0.2 g and the mice were randomly divided into three groups of 4 mouse each. The mice were injected intravenously 1 μg of the radiolabelled peptide. At 1 h and 4 h after injection, the mice were sacrificed and the tumor and other tissues were dissected. Blocking experiment was also performed using three nude mice which were subjected to injection of the excess amount (500 μg/50 μl) of the unlabeled peptide 30 min before radioconjugate peptide injection.

[3] = 4 h p.i., blocked with excess unlabeled peptide (500 μg) 0.5 h before, n = 3

Structure (SMILES): CC[C@H](C)[C@H](NC(=O)[C@@H](NC(=O)[C@H](CC(N)=O)NC(=O)[C@H](CCC(N)=O)NC(=O)[C@@H]1CCCN1C(=O)[C@@H](NC(=O)[C@H](Cc1ccc(O)cc1)NC(=O)CNC(=O)[C@H](Cc1ccc(O)cc1)NC(=O)[C@H](Cc1c[nH]c2ccccc12)NC(=O)[C@H](Cc1c[nH]cn1)NC(=O)[C@H](Cc1ccc(O)cc1)NC(=O)[C@H](CO)NC(=O)[C@H](CO)NC(=O)[C@H](CO)NC(=O)c1ccc(NN)nc1)[C@@H](C)O)C(C)C)C(=O)O [^99mTc-tricine-HYNIC-SSS-GE11, metal not drawn]
- Blood uptake ([1]; 1 h p.i.): 0.84 ± 0.04 % ID/g
- Bone uptake ([1]; 1 h p.i.): 0.97 ± 0.14 % ID/g
- Heart uptake ([1]; 1 h p.i.): 0.76 ± 0.16 % ID/g
- Kidney uptake ([1]; 1 h p.i.): 24.5 ± 1.7 % ID/g
- Liver uptake ([1]; 1 h p.i.): 2.88 ± 0.84 % ID/g
- Lung uptake ([1]; 1 h p.i.): 1.14 ± 0.63 % ID/g
- Muscle uptake ([1]; 1 h p.i.): 0.52 ± 0.14 % ID/g
- Spleen uptake ([1]; 1 h p.i.): 0.61 ± 0.14 % ID/g
- Stomach uptake ([1]; 1 h p.i.): 0.91 ± 0.27 % ID/g
- s.g & Th. (salivary gland and thyroid) uptake ([1]; 1 h p.i.): 0.87 ± 0.15 % ID/g
- Blood uptake ([1]; 4 h p.i.): less than 1 % ID/g
- Bone uptake ([1]; 4 h p.i.): 0.57 ± 0.2 % ID/g
- Heart uptake ([1]; 4 h p.i.): 0.44 ± 0.18 % ID/g
- Kidney uptake ([1]; 4 h p.i.): 17.5 ± 1.25 % ID/g
- Liver uptake ([1]; 4 h p.i.): 2.05 ± 0.39 % ID/g
- Lung uptake ([1]; 4 h p.i.): 0.68 ± 0.23 % ID/g
- Muscle uptake ([1]; 4 h p.i.): 0.23 ± 0.11 % ID/g
- Spleen uptake ([1]; 4 h p.i.): 0.41 ± 0.13 % ID/g
- Stomach uptake ([1]; 4 h p.i.): 0.57 ± 0.15 % ID/g
- s.g & Th. (salivary gland and thyroid) uptake ([1]; 4 h p.i.): 0.46 ± 0.22 % ID/g
- Blood uptake ([1]; 4 h p.i., listed as 99mTc-Tricine-HYNIC-SSS-GE11): 0.39 ± 0.11 % ID/g
- Blood uptake ([1]; 24 h p.i.): 0.18 ± 0.05 % ID/g
- Bone uptake ([1]; 24 h p.i.): 0.28 ± 0.05 % ID/g
- Heart uptake ([1]; 24 h p.i.): 0.40 ± 0.2 % ID/g
- Kidney uptake ([1]; 24 h p.i.): 3.55 ± 0.38 % ID/g
- Liver uptake ([1]; 24 h p.i.): 0.33 ± 0.069 % ID/g
- Lung uptake ([1]; 24 h p.i.): 0.47 ± 0.09 % ID/g
- Muscle uptake ([1]; 24 h p.i.): 0.19 ± 0.05 % ID/g
- Spleen uptake ([1]; 24 h p.i.): 0.20 ± 0.06 % ID/g
- Stomach uptake ([1]; 24 h p.i.): 0.32 ± 0.19 % ID/g
- s.g & Th. (salivary gland and thyroid) uptake ([1]; 24 h p.i.): 0.36 ± 0.12 % ID/g
- Stability in human serum (Stability in human serum): 96%
- Blood uptake ([2]; 1 h p.i., n = 4): 2.53 ± 0.51 % ID/g
- Bone uptake ([2]; 1 h p.i., n = 4): 1.91 ± 0.53 % ID/g
- Heart uptake ([2]; 1 h p.i., n = 4): 2.40 ± 0.96 % ID/g
- Intestine uptake ([2]; 1 h p.i., n = 4): 8.38 ± 4.11 % ID/g
- Kidney uptake ([2]; 1 h p.i., n = 4): 64.95 ± 7.81 % ID/g
- Liver uptake ([2]; 1 h p.i., n = 4): 6.93 ± 0.95 % ID/g
- Lung uptake ([2]; 1 h p.i., n = 4): 3.39 ± 0.64 % ID/g
- Muscle uptake ([2]; 1 h p.i., n = 4): 0.99 ± 0.21 % ID/g
- Spleen uptake ([2]; 1 h p.i., n = 4): 2.86 ± 0.17 % ID/g
- Stomach uptake ([2]; 1 h p.i., n = 4): 2.65 ± 0.66 % ID/g
- Tumor uptake ([2]; 1 h p.i., n = 4): 2.33 ± 0.67 % ID/g
- s.g & Th. (salivary gland and thyroid) uptake ([2]; 1 h p.i., n = 4): 2.52 ± 0.82 % ID/g
- Tumor/Blood Ratio ([2]; 1 h p.i., n = 4): 0.92
- Tumor/Bone Ratio ([2]; 1 h p.i., n = 4): 1.2
- Tumor/Muscle Ratio ([2]; 1 h p.i., n = 4): 2.3
- Blood uptake [2, 3]: 0.99 ± 0.18 % ID/g
- Bone uptake [2, 3]: 1.01 ± 0.11 % ID/g
- Heart uptake [2, 3]: 0.65 ± 0.1 % ID/g
- Intestine uptake [2, 3]: 3.83 ± 2.1 % ID/g
- Kidney uptake [2, 3]: 42.10 ± 4.39 % ID/g
- Liver uptake [2, 3]: 3.28 ± 0.93 % ID/g
- Lung uptake [2, 3]: 1.24 ± 0.12 % ID/g
- Muscle uptake [2, 3]: 0.51 ± 0.07 % ID/g
- Spleen uptake [2, 3]: 0.83 ± 0.1 % ID/g
- Stomach uptake [2, 3]: 1.16 ± 0.11 % ID/g
- Tumor uptake [2, 3]: 0.93 ± 0.10 % ID/g
- s.g & Th. (salivary gland and thyroid) uptake [2, 3]: 0.89 ± 0.16 % ID/g
- Tumor/Blood Ratio [2, 3]: 0.96
- Tumor/Bone Ratio [2, 3]: 0.92
- Tumor/Muscle Ratio [2, 3]: 1.86
- Blood uptake ([2]; 4 h p.i., n = 4): 1.43 ± 0.18 % ID/g
- Bone uptake ([2]; 4 h p.i., n = 4): 1.29 ± 0.29 % ID/g
- Heart uptake ([2]; 4 h p.i., n = 4): 1.56 ± 0.37 % ID/g
- Intestine uptake ([2]; 4 h p.i., n = 4): 3.24 ± 0.9 % ID/g
- Kidney uptake ([2]; 4 h p.i., n = 4): 57.90 ± 0.49 % ID/g
- Liver uptake ([2]; 4 h p.i., n = 4): 4.64 ± 0.69 % ID/g
- Lung uptake ([2]; 4 h p.i., n = 4): 1.79 ± 0.34 % ID/g
- Muscle uptake ([2]; 4 h p.i., n = 4): 0.51 ± 0.14 % ID/g
- Spleen uptake ([2]; 4 h p.i., n = 4): 1.49 ± 0.32 % ID/g
- Stomach uptake ([2]; 4 h p.i., n = 4): 1.53 ± 0.16 % ID/g
- Tumor uptake ([2]; 4 h p.i., n = 4): 1.66 ± 0.41 % ID/g
- s.g & Th. (salivary gland and thyroid) uptake ([2]; 4 h p.i., n = 4): 1.80 ± 0.21 % ID/g
- Tumor/Blood Ratio ([2]; 4 h p.i., n = 4): 1.17
- Tumor/Bone Ratio ([2]; 4 h p.i., n = 4): 1.3
- Tumor/Muscle Ratio ([2]; 4 h p.i., n = 4): 3.42
